{"source": "patent US12173292B2", "about": "“Controlling bacterial biofilms” (LANXESS Corporation, priority 2019, dated 2024)", "molecules": {"B1": {"name": "DVU2964: D. vulgaris Hildenborough protein, 219 aa, SEQ ID NO:10, expressed from pVLT33-Pdvu0304-dvu2964 (protein)", "chain": "MRENACVGCLTASASHELQNALAVIRESAGLMQDLIALGGENIPRRERIVELLSLIQQQVARGGELAGGLNTLGHAWEEDDGDLARILEEFVILAGRMGRMRSVTVGLAPGESGLRAPSAGLALRVLLFDLLQTCLEEAPGCALTFAPARRDGIPGIHLRVGLARCDATTDVLRRLDAQLARLGARKEPDNGHGTPARDEPDGVLYYFTACPSATGHRA", "modifications": "Desulfovibrio vulgaris Hildenborough"}, "B2": {"name": "DVU2962: D. vulgaris Hildenborough protein, 577 aa, SEQ ID NO:8, expressed from pVLT33-Pdvu0304-dvu2962 (protein)", "chain": "MKNPLGTMLSRLRSVFDVPDEIAPERYRMLRRKITLLMTAVSVLPLLILTAVSYHQYQSTLTREIVTPVRALVNKTRHSFELFLAERSSTVSLLAKTYSMAELSDEKNLNRIFLALKGEFPGFVDLGVIDGRGVQVGYVGPYDVRGKNYSEADWYNRTRVKGVYISDVFMGFRRFPHIAIAVQRMNPDGSSWMLRATIETTQFDRLIASMGLDPESDAFLINTAGVLQTNSRFYGNVLDVMPMPVPHLSYEPSIIDTEDPEGRQIFLSSAFLQNADFAIVAVKPKTEILRPWTSLRSDLLIFVAFSVALIISAAFGFTDMLVRRMRDSDERRIAAFVQIEHTQKLSSIGRLAAGVAHEINNPLAIINEKAGLAADLIALSQDFPQKERFSAIVEAISRSVDRCRSITHRLLGFSRRMDATYEQLDVNGILKETMSFLEQEAVHRSITIGTSLDAGLPRITSDRGQLQQVFLNIINNAFAAVQDGGSVTLTTFAADGGMVGVSIQDNGKGMSEEVQRHIFEPFFTTKKTAGTGLGMFITYGIIKRLGGEIGINSREGVGTTVTVYLPQDAPAPQSLEN", "modifications": "Desulfovibrio vulgaris Hildenborough"}, "B3": {"name": "DVU2960: D. vulgaris Hildenborough protein, 474 aa, SEQ ID NO:4, expressed from pVLT33-Pdvu0304-dvu2960 (protein)", "chain": "MKQASLPAGARIAGLVGRELALGPVFDAIPTGLAVLDADLRICLMNRALETMTGFTTAEVAGIPCRHVLRASVCLHRCPTRTAVCDATGGNAPCHAQEGDLLNRHRRRIPVRLTLAPLHDAQGQLCGWLHTAEDLSLVRELEERCSKGQASGPLVGRSVVMEELFRTVQALAQTETPVLITGETGTGKDAVAETIHKASPRGREPFVKASLSSLPDFLVESELFGHRKGAFPGAEEDKPGRFRMAQGGTLCLSELGDLPPAMQGRLVTFLDEGLVWPVGATDPVRCDVRLLVASNLDLEAMVASGRLREDLYSRLAAVRIHLPPLRERGEDLEFLLSHYLAHFAARLRKTIHGFSGKSLRVLLAYGFPGNVRELKNIVEYAATLCTGEVVMPSHLPAYLFHTRPAAAPPRAIERDTPKGAAEDEASARSSVVDLERRLIVDALARAGNRKGEAARILGWGRSTLWRKMKQFGLE", "modifications": "Desulfovibrio vulgaris Hildenborough"}, "B4": {"name": "DVU2956: D. vulgaris Hildenborough sigma 54-dependent enhancer-binding protein, 345 aa, SEQ ID NO:2, expressed in the bacteria from plasmids (protein)", "chain": "MSGKKLPHSGNSLPIEGTVSPQRETLQNGTDFLLLSGVMQRLRVLASQVASSDAPVLIHGETGTGKELFARLIHDMGIRAKKPFVAVNCGVHEGELFADKFFGHEQGAFTGAHRMSQGCFELASEGTLFLDEVGEIPGANQADFLRVLEEKRFRRIGGQRDIPFQARIVAASNRDLQEMVGQGQFRADLFYRLNVIPVVLPPLRARKEEVVPLARHFLTHYGDKYHRPGVRFAPETEQALAAYQWPGNVRELKNLVERIALLAPEGVLGPEHLPLELRSAAAVEVGVPHEVPEDLSLDRARREAEVRVILKAMRATGGNKGEAARLLGVSPRTLRYKFAEYALRF", "modifications": "Desulfovibrio vulgaris Hildenborough"}}, "key": {"D. vulgaris biofilm": {"tested_on": "D. vulgaris biofilm", "test": "Biofilm formation assay, crystal violet staining, 96-well plates", "format": "cell-based, Desulfovibrio vulgaris Hildenborough", "procedure": "(§1) D. vulgaris, D. desulfuricans and plasmid-transformed strains of both of these bacteria were grown anaerobically in Modified Baar's medium (300 μL) in 96-well micro-titer plates (Fisher Scientific, cat no. 07-200-656) for 24 hours at 30° C. without shaking, after which time the planktonic cell turbidity in each well was measured spectrophotometrically at 620 nm using a Sunrise™ microplate reader (TECAN, Switzerland). The plates were then incubated under the same conditions for an additional 24 to 48 hours, after which biofilm formation was measured by crystal violet staining. For biofilm dispersal assays, 24 hours after seeding the plates for biofilm growth, arabinose (10 mM) was added to strains harboring plasmids allowing arabinose-based induction of DVU2956 (SEQ ID NO:2). The arabinose-treated strains were then incubated anaerobically for another 24 hours without shaking, after which time biofilm formation was measured by crystal violet staining.\nFor crystal violet staining, the liquid portion of the cultures was discarded and the wells were washed by dipping the plates into 1 L of distilled water, after which the plates were dried with paper towel. Crystal violet (0.1%, 300 μL) was added to each well and the plates were incubated for 20 minutes at room temperature. After discarding the bulk of the staining solution, the wells were washed three times with distilled water as above to remove unbound crystal violet. The wells were then soaked for 5 minutes in 95% ethanol (300 μL) to dissolve the remaining (bound) crystal violet, which was then measured spectrophotometrically at 540 nm using the Sunrise™ microplate reader. Normalized biofilm formation percentage values were calculated based on the ratio of […] to compare the degree of biofilm formation or dispersal."}, "[1]": {"tested_on": "D. vulgaris biofilm cells", "test": "Hydrogen sulfide production assay (methylene blue spectrophotometric)", "format": "cell-based, Desulfovibrio vulgaris Hildenborough", "procedure": "Hydrogen sulfide (H2S) by D. vulgaris strains was measured via a methylene blue spectrophotometric assay (Rabinowitz, 1978, Methods Enzymol. 53:275-277; incorporated herein by reference). Briefly, in this assay, N,N-dimethyl-p-phenylenediamine dihydrochloride is converted into methylthioninium chloride (methylene blue) by reacting with H2S dissolved in hydrochloride acid in the presence of ferric chloride. For a 96-well screening format, D. vulgaris was anaerobically grown in Modified Baar's medium in a 96-well plate (starting turbidity/OD of 0.05 at 600 nm, 150-μL culture volume) and incubated for 48 hours for biofilm formation. Anaerobically, 25 μL of each biofilm culture was transferred to another 96-well plate containing 225 μL deoxygenated water per well to render a 10-fold dilution of the transferred culture. Next, 5% N,N-dimethyl-p-phenylenediamine dihydrochloride (24.5 μL, prepared in 5.5 N HCl) (Sigma-Aldrich, cat. no. 536-46-9) was added to each well. After mixing the wells gently by pipetting and anaerobically incubating the mixes at room temperature for 3 minutes, the 96-well plate was removed from the anaerobic chamber and the absorbance at 670 nm of each well was measured using a Sunrise™ microplate reader.\nFor a more rigorous H2S assay, sealed glass vials were used to prevent H2S loss. D. vulgaris strains were grown anaerobically for 7 to 10 days in 10 mL of Modified Baar's medium with 2.5 g of sterilized glass wool to promote biofilm formation. Supernatants from these cultures were transferred by syringe to another sealed vial for dilution with 10 mL of PBS buffer. Anaerobically, 1 mL of diluted sample was then transferred by syringe to another sealed bottle with 125 μL of 12% sodium hydroxide and 3.25 mL of 1% zinc acetate (to fix the sulfide from H2S by forming ZnS precipitates). […] Water (2.125 mL) was added and mixed, and then at least 1 mL of each reaction was removed to determine absorbance at 670 nm."}, "D. desulfuricans biofilm": {"tested_on": "D. desulfuricans biofilm", "test": "Biofilm formation assay, crystal violet staining, 96-well plates", "format": "cell-based, Desulfovibrio desulfuricans (DSM 12129)", "conditions": "at 24 hours; D. desulfuricans/pVLT33-Pdvu0304-dvu2956 vs D. desulfuricans/pVLT33-Pdvu0304", "procedure": "as §1\n(§2) For crystal violet staining, the liquid portion of the cultures was discarded and the wells were washed by dipping the plates into 1 L of distilled water, after which the plates were dried with paper towel. […] The wells were then soaked for 5 minutes in 95% ethanol (300 μL) to dissolve the remaining (bound) crystal violet, which was then measured spectrophotometrically at 540 nm using the Sunrise™ microplate reader. […]"}, "[2]": {"tested_on": "established D. vulgaris biofilms", "test": "Biofilm dispersal assay, arabinose induction, crystal violet staining", "format": "cell-based, Desulfovibrio vulgaris Hildenborough", "conditions": "after 24 hours; expression from inducible promoter PBAD on pMQ70; vs D. vulgaris/pMQ70", "procedure": "as §1, §2"}, "[3]": {"tested_on": "Pdvu2956 (dvu2956 gene regulatory sequence)", "test": "Pdvu2956-mNeonGreen reporter fluorescence assay", "format": "cell-based, E. coli BL21(DE3)", "conditions": "ectopic expression induced by 1 mM IPTG for 90 minutes; E. coli/pMQ70-Pdvu2956-mNeonGreen/pET27b-dvu2956; excitation 425 nm, emission 517 nm", "from_the_text": "A D. vulgaris dvu2956 gene regulatory sequence (SEQ ID NO:12), which comprises (in 5′ to 3′ direction) predicted promoter (SEQ ID NO:13) and 5′-untranslated region (5′-UTR) sequences (SEQ ID NO:14), was linked upstream of a synthetic ribosome binding site (RBS, SEQ ID NO:15) and a codon-optimized nucleotide sequence (SEQ ID NO:16) encoding a monomeric yellow-green fluorescent protein (mNeonGreen™, GenBank® Accession No. KC295282). This nucleotide sequence (provided as SEQ ID NO:17) was constructed in E. coli TG1 to render plasmid construct pMQ70-Pdvu2956-mNeonGreen (8164 bp) and then transferred into D. vulgaris (wild type) and E. coli strain BL21(DE3), the latter of which was already transformed with plasmid pET27b-dvu2956 (pET27b-dvu2956 allows for IPTG-induced expression of ectopic DVU2956 [SEQ ID NO:2]). PCR analyses confirmed the presence of plasmids pMQ70-Pdvu2956-mNeonGreen (in both strains) and pET27b-dvu2956 (in E. coli). Additional D. vulgaris and E. coli strains that were transformed with plasmid pMQ70 were prepared, and served as negative controls in the fluorescence assays described below.\nA similar analysis was conducted to test whether Pdvu2956 can heterologously drive gene expression in bacteria other than sulfate-reducing bacteria. […]"}, "[4]": {"conditions": "at 48 hours, biofilm-specific expression from pVLT33-Pdvu0304-based construct in D. vulgaris, vs wild type and D. vulgaris/pVLT33-Pdvu0304"}}}
{"molecule": "B1", "values": [{"measurement": "inhibition of biofilm formation", "setting": "D. vulgaris biofilm; [4]", "result": 45, "unit": "%"}]}
{"molecule": "B2", "values": [{"measurement": "inhibition of biofilm formation", "setting": "D. vulgaris biofilm; [4]", "result": 90, "unit": "%"}]}
{"molecule": "B3", "values": [{"measurement": "inhibition of biofilm formation", "setting": "D. vulgaris biofilm; [4]", "result": 95, "unit": "%"}]}
{"molecule": "B4", "values": [{"measurement": "decrease of H2S production", "setting": "[1]; 96-well culture, D. vulgaris/pVLT33-Pdvu0304-dvu2956 vs D. vulgaris/pVLT33-Pdvu0304", "result": "51±2", "unit": "%"}, {"measurement": "decrease of H2S production", "setting": "[1]; D. vulgaris (dvu2956-)/pMQ70-Pdvu2956-dvu2956 vs D. vulgaris (dvu2956-)/pMQ70-Pdvu2956", "result": "45±13", "unit": "%"}, {"measurement": "inhibition of H2S production", "setting": "[1]; sealed vials, biofilm-specific expression", "result": "34.6±0.6", "unit": "%"}, {"measurement": "inhibition of biofilm formation", "setting": "D. vulgaris biofilm; at 24 hours, D. vulgaris (dvu2956-) complemented with pMQ70-Pdvu2956-dvu2956, vs D. vulgaris (dvu2956-)/pMQ70-Pdvu2956", "result": "48±11", "unit": "%"}, {"measurement": "inhibition of biofilm formation", "setting": "D. desulfuricans biofilm", "result": "78±9", "unit": "%"}, {"measurement": "dispersal of established biofilms", "setting": "[2]", "result": "42±4", "unit": "%"}, {"measurement": "higher fluorescence signal vs negative control", "setting": "[3]", "result": "~14", "unit": "fold"}]}
